Experiment [1] addresses F protein of RSV type B strain 18537 (on the virus in the neutralization assay) (respiratory syncytial virus type B, strain 18537) (UniProt P13843). In words: cell-based or functional assay.
Experiment [2] has as its target F protein of RSV A2 (on the virus in the neutralization assay) (respiratory syncytial virus, A2 strain) (UniProt P03420). In words: cell-based or functional assay.

Substance D25 (antibody) had an IC50 of each RSV neutralizing antibody, 18537 in experiment [1] of 0.167 µg/mL. Besides, the IC50 of each RSV neutralizing antibody, RSV A2 in experiment [2] was 0.0222 µg/mL.

Source of the values: patent US20240409621A1.
